Source: patent US7915395B2

Molecular target: human CD3-ε (human) (UniProt P07766)
Sequence of UniProt P07766 (P07766 23-207): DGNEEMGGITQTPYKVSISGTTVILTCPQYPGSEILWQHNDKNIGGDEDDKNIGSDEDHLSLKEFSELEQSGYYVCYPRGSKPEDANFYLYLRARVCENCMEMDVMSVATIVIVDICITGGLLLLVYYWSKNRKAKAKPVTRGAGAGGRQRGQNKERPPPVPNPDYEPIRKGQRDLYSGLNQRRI

| Proliferation (day 3, cpm × 10^-3), Purified T Cells + (0.5 ng/ml PMA) | Proliferation (day 3, cpm × 10^-3), Purified T Cells + (2 µg/ml 9.3) | Molecule |
| --- | --- | --- |
| 83.6 cpm × 10^-3 |  | native anti-CD3 Mab G19-4 (antibody) |
|  | 58.4 cpm × 10^-3 | G19-4 Fab |
| 65 cpm × 10^-3 |  | CD3 sFv (VL-VH, no tag) (scFv) scFv: VDIQMTQTTSSLSASLGDRVTISCRASQDIRNYLNWYQQKPDGTVKLLIYYTSRLHSGVPSRFSGSGSGTDYSLTIANLQPEDIATYFCQQGNTLPWTFGGGTKLVTKRELGGGGSGGGGSGGGGSIDEVQLQQSGPELVKPGASMTMSCKASGYSFTGYIVNWLKQSHGKNLEWIGLINPWKGLTTYNQKFKGKATLTVDKSSSTAYMELLSLTSEDSAVYYCARSGYYGDSDWYFDVWGAGTTCTVSSFESDQSNSEEAKKEEAKKEEAKKSNSLESL |
